Data taken from paper PMC3821024, “The enzyme carbonic anhydrase as an integral component of biogenic Ca-carbonate formation in sponge spicules^” (FEBS Open Bio, 2013).

Substrate: CC(=O)Oc1ccc([N+](=O)[O-])cc1
Test: colorimetric esterase assay, Lineweaver-Burk plot
Format: biochemical, Sycon raphanus
Details: 15 mM Tris/SO4 pH 7.4, 22 °C, 0.25-3 mM substrate, apparent Km

B1: recombinant carbonic anhydrase (CA) from S. raphanus (Sycon raphanus) (protein)
chain: ASWSYNYGAANGPNNWGMLPGFSTCGNGTKQTPIDIVRASATRQTYPTLSFSGATNETDWTIQNNGHSVAALPTADIWLSGGPLGSKVYKVYNIHIHFGNSSFRASEHSFDGGQRTTGEFHVVTYDRTFSNIGEAVASNRGDALSVFGVLFQAQTGQTYDAGITSLINMAANLTYAGDDYVDGLDFSTMVSALDLQQYYSYMGSLTTPGCAEVVSWIVANRLHYVSPAAIDQLMSLKAGMSATPGIDLQGNTRPLQALNGRTVSRSFDLSGS
notes: carbonic anhydrase domain, lacking signal peptide and transmembrane region; expressed in E. coli, Ni-NTA purified
Km: 6.2 ± 1.0 mM
